Measured values published in the supplement of paper PMC7877785.
± gives the uncertainty stated by the source.

Experiment: self-splicing fitness, log relative to wild type (ln ratio); higher = more splicing; Tetrahymena group I intron in knt gene, E. coli kanamycin selection, DiMSum; sequences stand for … in CUCUCU…GGAGGGAAAAGUUAUCAGGCAUGCACCUGGUAGCUAGUCUUUAAACCAAUAGAUUGCAUCGGUUUAAAAGGCAAGACCGUCAAAUUGCGGGAAAGGGGUCAACAGCCGUUCAGUACCAAGUCUCAGGGGAAACUUUGAGAUGGCCUUGCAAAGGGUAUGGUAAUAAGCUGACGGACAUGGUCCUAACCACGCAGCCAAGUCCUAAGUCAACAGAUCUUCUGUUGAUAUGGAUGCAGUUCACAGACUAAAUGUCGGUCGGGGAAGAUGUAUUCUUCUCAUAAGAUAUAGUCGGACCUCUCCUUAAUGGGAGCUAGCGGAUGAAGUGAUGCAACACUGGAGCCGCUGGGAACUAAUUUGUAUGCGAAAGUAUAUUGAUUAGUUUUGGAGUACUCGUGGUCG
How it was run: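 Pooled colonies went to amplicon sequencing on an Illumina HiSeq 2500 after six replicate transformations. The plates were LB agar with 100 μg/mL carbenicillin, 50 μM IPTG and 0.2% rhamnose, with or without 25 μg/mL kanamycin, incubated overnight at 37°C or 30°C. The E. coli BL21(DE3) library had all eight P1ex-region intron nucleotides randomised, the intron placed in the knt kanamycin-resistance gene on pET-22b(+). DiMSum fitness is the error-weighted combination of replicate fold changes, kanamycin against none, normalised to wild type.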

Row | Sequence | self-splicing fitness (ln) (30 °C) | self-splicing fitness (ln) (37 °C)
1 | UGAAAGCAAUAUUACGCUCG | -1.22 ± 0.14 | 0.141 ± 0.18
2 | AUUUAGCAAUAUUACGUAAG | -2.8 ± 0.18 | 0.197 ± 0.18
3 | GUGAAGCAAUAUUACGAACC | -3.05 ± 0.29 | 
4 | GAAAAGCAAUAUUACGAUAA | -1.58 ± 0.081 | -0.197 ± 0.091
5 | GAUGAGCAAUAUUACGCAGU | -3.61 ± 0.3 | -2.44 ± 0.33
6 | UAACAGCAAUAUUACGCCAU | -3.93 ± 0.22 | -2.11 ± 0.17
7 | UAGCAGCAAUAUUACGUUUC | -2.78 ± 0.29 | -1.85 ± 0.33
8 | CGGGAGCAAUAUUACGUUGG | -3.83 ± 0.22 | -2.52 ± 0.2
9 | UCUUAGCAAUAUUACGCCCG | -1.07 ± 0.32 | -1.34 ± 0.34
10 | AACUAGCAAUAUUACGUUAA | -2.93 ± 0.24 | -1.71 ± 0.23
11 | UAAUAGCAAUAUUACGGGAA | -2.04 ± 0.21 | -2.11 ± 0.26
12 | GAUAAGCAAUAUUACGCACU | -1.21 ± 0.16 | -0.284 ± 0.2
13 | CCUGAGCAAUAUUACGGCAC |  | -2.23 ± 0.26
14 | UUGGAGCAAUAUUACGCGGG | -3.26 ± 0.19 | -0.733 ± 0.15
15 | GAUCAGCAAUAUUACGACGA | -0.224 ± 0.13 | 0.262 ± 0.14
16 | ACCCAGCAAUAUUACGUACG | -2.2 ± 0.14 | -1.71 ± 0.16
17 | UCUGAGCAAUAUUACGAGGA | -3.8 ± 0.4 | -3.29 ± 0.42
18 | ACAUAGCAAUAUUACGAAGU | -2.67 ± 0.21 | -2.85 ± 0.23
19 | AGGUAGCAAUAUUACGAGUA | -2.415 ± 0.023 | -1.52 ± 0.035
20 | AUGUAGCAAUAUUACGGUGA | -1.57 ± 0.13 | -1.52 ± 0.16
21 | GUGGAGCAAUAUUACGCCUA | -3 ± 0.29 | -1.96 ± 0.2
22 | CCUUAGCAAUAUUACGACAA | -3.31 ± 0.2 | -3.02 ± 0.35
23 | GAAAAGCAAUAUUACGCGUU | -2.98 ± 0.13 | -1.18 ± 0.12
24 | UUAGAGCAAUAUUACGGAAC | -4.11 ± 0.39 | -2.33 ± 0.37
25 | CGAAAGCAAUAUUACGGGAG | -3.09 ± 0.12 | -2.56 ± 0.13
26 | CCCCAGCAAUAUUACGUUUG | -4.17 ± 0.15 | -2.51 ± 0.12

Row | Sequence | self-splicing fitness (ln) (30 °C) | self-splicing fitness (ln) (37 °C)
27 | AAUCAGCAAUAUUACGAUCG | -0.0405 ± 0.063 | 0.448 ± 0.084
28 | GCAUAGCAAUAUUACGUGAG | -0.159 ± 0.069 | -0.351 ± 0.083
29 | GGUGAGCAAUAUUACGUGAA | -1.76 ± 0.36 | -1.27 ± 0.32
30 | ACCGAGCAAUAUUACGCACC | -2.84 ± 0.22 | -1.08 ± 0.21
31 | GUCAAGCAAUAUUACGUCUA | -1.94 ± 0.1 | -0.679 ± 0.079
32 | CGAUAGCAAUAUUACGCGCC | -2.04 ± 0.33 | 0.215 ± 0.24
33 | GAGGAGCAAUAUUACGAUGU | -3.29 ± 0.33 | -2.69 ± 0.32
34 | AAGAAGCAAUAUUACGAGGG | -3.5 ± 0.3 | -2.32 ± 0.35
35 | CCGUAGCAAUAUUACGCGGG | -4.02 ± 0.33 | -3.61 ± 0.39
36 | UGCGAGCAAUAUUACGUGUC | -4.36 ± 0.33 | -2.01 ± 0.26
37 | GGCCAGCAAUAUUACGGGCA | -1.06 ± 0.07 | -0.314 ± 0.079
38 | CGGCAGCAAUAUUACGUCUC | -1.24 ± 0.065 | -0.433 ± 0.086
39 | GUCAAGCAAUAUUACGCUUG | -4.27 ± 0.36 | -2.06 ± 0.23
40 | UCGAAGCAAUAUUACGAGGU | -3.45 ± 0.4 | -2.03 ± 0.29
41 | AGGAAGCAAUAUUACGCGGC |  | -1.98 ± 0.44
42 | CUCCAGCAAUAUUACGAACG | -1.6 ± 0.15 | -0.22 ± 0.15
43 | CAAAAGCAAUAUUACGUUCA | -1.67 ± 0.11 | -0.976 ± 0.1
44 | UGUCAGCAAUAUUACGCUUA | -0.0584 ± 0.077 | 0.408 ± 0.11
45 | GGCAAGCAAUAUUACGUCUU | -0.676 ± 0.066 | -0.385 ± 0.071
46 | GGACAGCAAUAUUACGGCUA | -0.452 ± 0.13 | -0.278 ± 0.12
47 | CAGGAGCAAUAUUACGAUGG | -0.317 ± 0.091 | 0.171 ± 0.13
48 | AUGAAGCAAUAUUACGCGCC | -0.426 ± 0.085 | -0.127 ± 0.11
49 | GCACAGCAAUAUUACGGUUA | -0.902 ± 0.055 | -0.384 ± 0.059
50 | UAAAAGCAAUAUUACGGAUC | -2.28 ± 0.29 | -1.81 ± 0.24
51 | GUUUAGCAAUAUUACGUAGU | -1.84 ± 0.14 | -0.706 ± 0.14
52 | CCGAAGCAAUAUUACGAUGU | -3.33 ± 0.27 | -1.86 ± 0.15

Row | Sequence | self-splicing fitness (ln) (30 °C) | self-splicing fitness (ln) (37 °C)
53 | CGAGAGCAAUAUUACGGCGU | -2.46 ± 0.28 | -1.2 ± 0.19
54 | UCGUAGCAAUAUUACGUGUC | -3.24 ± 0.25 | -2.38 ± 0.25
55 | ACGAAGCAAUAUUACGUUUG | -1.27 ± 0.071 | -1.16 ± 0.11
56 | CAGGAGCAAUAUUACGCGGG | -0.771 ± 0.15 | -1.84 ± 0.14
57 | UAACAGCAAUAUUACGCCGG | -0.84 ± 0.067 | -0.697 ± 0.091
58 | GACCAGCAAUAUUACGUCGA | -1.44 ± 0.078 | -0.592 ± 0.078
59 | UUACAGCAAUAUUACGGUAC | -3.98 ± 0.22 | -2.26 ± 0.14
60 | UCGGAGCAAUAUUACGGACG | -1.65 ± 0.21 | 0.113 ± 0.17
61 | CAGUAGCAAUAUUACGACAC | -2.36 ± 0.22 | -1.28 ± 0.23
62 | CAUGAGCAAUAUUACGCCUU | -3.02 ± 0.26 | -1.86 ± 0.24
63 | UAUUAGCAAUAUUACGGGCG | -0.882 ± 0.076 | 0.185 ± 0.083
64 | UUAUAGCAAUAUUACGUGUG | -1.63 ± 0.083 | -0.419 ± 0.098
65 | CAAAAGCAAUAUUACGCCUU | -3.67 ± 0.17 | -0.986 ± 0.12
66 | GUCGAGCAAUAUUACGUCUG | -3.5 ± 0.43 | -2.51 ± 0.3
67 | UAUAAGCAAUAUUACGUGCG | -0.452 ± 0.11 | -0.00615 ± 0.17
68 | CUUGAGCAAUAUUACGUGCG | -2.22 ± 0.13 | -0.809 ± 0.14
69 | GCAAAGCAAUAUUACGUAGA | -1.64 ± 0.074 | -1.13 ± 0.095
70 | AUCAAGCAAUAUUACGGACU | -0.672 ± 0.076 | 0.456 ± 0.096
71 | ACUAAGCAAUAUUACGCAGU | -4.72 ± 0.28 | -3.25 ± 0.46
72 | UGCGAGCAAUAUUACGUCAA |  | -0.906 ± 0.35
73 | AUCAAGCAAUAUUACGGCGU | 0.235 ± 0.1 | 0.219 ± 0.11
74 | GUGUAGCAAUAUUACGUUGC | -1.92 ± 0.22 | -2.28 ± 0.46
75 | GGGCAGCAAUAUUACGUAUC | -0.951 ± 0.068 | -0.0249 ± 0.1
76 | UAAAAGCAAUAUUACGUAGA | -2.7 ± 0.12 | -1.45 ± 0.14
